How the values were obtained:
O=C1C=CC(=O)C=C1 = experiment: steady-state kinetics, NADPH consumption, Michaelis-Menten fit; assay type: biochemical, Penicillium steckii; conditions: co-substrate NADPH
Text: steady-state kinetics, NADPH consumption, Michaelis-Menten fit on PsOYE4

[1] = target: PsOYE2, Class III OYE-type ene-reductase from Penicillium steckii (Penicillium steckii); experiment: DLS; PsOYE2 in solution; conditions not shown
[2] = target: PsOYE2, Class III OYE-type ene-reductase from Penicillium steckii (Penicillium steckii); experiment: SEC; PsOYE2 in solution; conditions not shown
[3] = target: PsOYE2, Class III OYE-type ene-reductase from Penicillium steckii (Penicillium steckii); experiment: crystal structure; PsOYE2 without any tag, FMN bound; monoclinic space group P2(1), four dimers in the asymmetric unit; 2.3 Å; interface analysed with PISA
[4] = substrate: NC(=O)C1=CN([C@@H]2O[C@H](COP(=O)(O)OP(=O)(O)OC[C@H]3O[C@@H](n4cnc5c(N)ncnc54)[C@H](OP(=O)(O)O)[C@@H]3O)[C@@H](O)[C@H]2O)C=CC1; experiment: steady-state kinetics, NADPH consumption, Michaelis-Menten fit; assay type: biochemical, Penicillium steckii; conditions: co-substrate p-benzoquinone
Text: (§1) steady-state kinetics, NADPH consumption, Michaelis-Menten fit on PsOYE6

[5] = substrate: O=C1C=CC(=O)C=C1; experiment: as above; assay type: biochemical, Penicillium steckii; conditions: co-substrate NADPH; remark: listed apart in the source
Text: as §1

[6] = substrate: NC(=O)C1=CN([C@@H]2O[C@H](COP(=O)(O)OP(=O)(O)OC[C@H]3O[C@@H](n4cnc5c(N)ncnc54)[C@H](OP(=O)(O)O)[C@@H]3O)[C@@H](O)[C@H]2O)C=CC1; experiment: as above; assay type: biochemical, Penicillium steckii; conditions: co-substrate p-benzoquinone; remark: listed apart in the source
Text: (§2) steady-state kinetics, NADPH consumption, Michaelis-Menten fit on PsOYE5

[7] = substrate: O=C1C=CC(=O)C=C1; experiment: as above; assay type: biochemical, Penicillium steckii; conditions: co-substrate NADPH; remark: listed apart in the source
Text: as §2

[8] = substrate: NC(=O)C1=CN([C@@H]2O[C@H](COP(=O)(O)OP(=O)(O)OC[C@H]3O[C@@H](n4cnc5c(N)ncnc54)[C@H](OP(=O)(O)O)[C@@H]3O)[C@@H](O)[C@H]2O)C=CC1; experiment: as above; assay type: biochemical, Penicillium steckii; conditions: co-substrate p-benzoquinone; remark: listed apart in the source
Text: (§3) steady-state kinetics, NADPH consumption, Michaelis-Menten fit on PsOYE2

[9] = substrate: O=C1C=CC(=O)C=C1; experiment: as above; assay type: biochemical, Penicillium steckii; conditions: co-substrate NADPH; remark: listed apart in the source
Text: as §3

[10] = substrate: NC(=O)C1=CN([C@@H]2O[C@H](COP(=O)(O)OP(=O)(O)OC[C@H]3O[C@@H](n4cnc5c(N)ncnc54)[C@H](OP(=O)(O)O)[C@@H]3O)[C@@H](O)[C@H]2O)C=CC1; experiment: as above; assay type: biochemical, Penicillium steckii; conditions: co-substrate p-benzoquinone; remark: listed apart in the source
Text: (§4) steady-state kinetics, NADPH consumption, Michaelis-Menten fit on PsOYE1

[11] = substrate: O=C1C=CC(=O)C=C1; experiment: as above; assay type: biochemical, Penicillium steckii; conditions: co-substrate NADPH; remark: listed apart in the source
Text: as §4

[12] = substrate: NC(=O)C1=CN([C@@H]2O[C@H](COP(=O)(O)OP(=O)(O)OC[C@H]3O[C@@H](n4cnc5c(N)ncnc54)[C@H](OP(=O)(O)O)[C@@H]3O)[C@@H](O)[C@H]2O)C=CC1; experiment: as above; assay type: biochemical, Penicillium steckii; conditions: co-substrate p-benzoquinone; remark: listed apart in the source
Text: (§5) steady-state kinetics, NADPH consumption, Michaelis-Menten fit on PsOYE3

[13] = substrate: O=C1C=CC(=O)C=C1; experiment: as above; assay type: biochemical, Penicillium steckii; conditions: co-substrate NADPH; remark: listed apart in the source
Text: as §5

## PsOYE4 (Penicillium steckii)
O=C1C=CC(=O)C=C1
  Km: 1100 ± 100 µM
  kcat: 28 ± 1 s⁻¹
  kcat/Km: 26000 M⁻¹ s⁻¹

## PsOYE2, Class III OYE-type ene-reductase from Penicillium steckii (enzyme)
[1]
  stoichiometry N: 2
[2]
  stoichiometry N: 2
[3]
  stoichiometry N: 2

B1: PsOYE6 (Penicillium steckii) (protein)
chain: MSSKLFNPMQVGRMQLSTRLAMAPMTRFRVDDDHNPLPIVKDYYAQRGSIPGTLLITEATIISPQAGGYKNVPGIYTDSQIAAWKEITDAVHAKGSYIYLQLWALGRVADPNYLRELGNYDLVSASDIPAGEGAPTPRPLSESDIQSFVKDYAQAAKNAVAAGFDGVEIHAANGYLIDQFIQDNSNQRNDSYGGSVENRARFALEVTQAVVDAIGADRTGIRYSPFSTFQGMRMADPIPQFSYLAKETAKFKLAFTHLVEPRIAGNADVEETPDELEFFLKEYGNATPVIIAGGYKAESAIQAVDEKYKEFDTVIGIGRPWTSNPDLPFRIKANVPLVPYDRDTFYNPKDPKGYIDWAFSPEFKATQVGA
[4]
  Km: 300 ± 100 µM
  kcat: 53 ± 7 s⁻¹
  kcat/Km: 170000 M⁻¹ s⁻¹
[5]
  Km: 1100 ± 100 µM
  kcat: 25.5 ± 0.9 s⁻¹
  kcat/Km: 23000 M⁻¹ s⁻¹

B2: PsOYE5 (Penicillium steckii) (protein)
chain: MSSSAATRFECADVDPSVLGQPLQFTFSGRSAPNRFLKGAMSERLASFSYSDLSARGIPSPTLIQAYKGWGESQIGINLTGNVMIDPGHLEAAGNPVIPRNAEFSGERFERFKELATAGKENGMLIIAQVGHPGRQTPQYLQPNPISASDVQVQGEPMGMKFAQPRAATHEDIANIIDGFAHAAEYLDKAGFDGIELHGAHGYLLSQFLSSATNLRTDQYGGDLKNRMRLILEVRDEIAKRVRKDFVVGIKINSVEFQDKGFQPDDAKELCRALEEHAFDFVELSGGTYEKSPFAEQKRPSTIERESLFLDFARLIVPGLTKTKTYVTGGFKTVEAMVKALETVDGVGLGRPLCQEPNLCAHILSGKVKGAIDQKIDMYNFGATAGAAGVQIQQMGNHLQPIDLSQEENVGKLFAALGPWLAARQKDVELYRSPAVADYVVPYSKTSML
[6]
  Km: 500 ± 200 µM
  kcat: 70 ± 14 s⁻¹
  kcat/Km: 150000 M⁻¹ s⁻¹
[7]
  Km: 900 ± 100 µM
  kcat: 23.2 ± 0.9 s⁻¹
  kcat/Km: 26000 M⁻¹ s⁻¹

B3: PsOYE2 (Penicillium steckii) (protein)
chain: MTWPDVPIAAAPGISYFTPAQSPPAGTARNPQTSGKAIPKLFQPLTIRGHTFQNRLGVAPMCQYSADDGHLTPWHMAHYGGIAQRGPGMIIIEATGVVPEGRITPGCVGLWKDSQIAPLKQVVEFAHSQGQKIGIQLAHAGRKASTVPPWLGGVTATNAVGGWTENVKGPSAIPFAEGEIVPKAMTKEDIEEVKTAWVAAVERAVAAGVDFIEIHNAHGYLLSSFLSPSSNQRTDDYGGSFENRIRLSLEISQLTRDTVGPNMPVFLRVSATDWLEKSMPEEKGWKLEDTVEFSRALAAQGAIDLIDISTGGVHAAQKVTSGVGFQVPFAKAVKEAVGQKMLVSAVGTINSGNLAEKILNEDDVDVILVGRAFQRDSGLAWAFAKDLDVEIAMAGQIRWGFTSFRNASEYIQPNSMKASIFD
[8]
  Km: 500 ± 100 µM
  kcat: 70 ± 10 s⁻¹
  kcat/Km: 140000 M⁻¹ s⁻¹
[9]
  Km: 2 ± 1 µM

B4: PsOYE1 (Penicillium steckii) (protein)
chain: MTIQYISGEESGLFRPLTISNGSLTLRHRIIHAPLTRNRGVPANPISTPENPNRIWVPGDLIAEYYGQRATEGGLLISEGIPPSLESNGMPGVPGLFTPEQANGWKKVVDAVHAKGGFIFCQLWHAGRATIPQMTGSPAVCPSASVWDSPKECYSHPPVGSTEPVPYANHPPIELSVPHIKQTIQDYCNAAKTAMEIGFDGVEIHGGNGYLPEQFLSSNINKRTDDYGGSPEKRCKFVFELMDEVAKTIGEQNLSIRLSPFGLFNQARGEQRLETWTHLCEGLKKAHPALSYVSFVEPRFEQIFSEEEKDTFLQSWGLKDVTLDRFRKIFGETPFFSAGGFDDKNSWNIVESGKYDGLLFGRYFISNPDLVHRLAKGLPLAPYDRTRFYGPFEDNVFHYTDYPTIDKQ
[10]
  Km: 300 ± 100 µM
  kcat: 63 ± 8 s⁻¹
  kcat/Km: 200000 M⁻¹ s⁻¹
[11]
  Km: 700 ± 100 µM
  kcat: 23.4 ± 1 s⁻¹
  kcat/Km: 33000 M⁻¹ s⁻¹

B5: PsOYE3 (Penicillium steckii) (protein)
chain: MAQSNHPDIANKPAEGISYYTPAQVPPAGSAAIPQSDGAQPPKLFTPFQVRGVTFHNRIGLSPLCQYSADDGHMTDWHMAHLGGIAQRGPGFLMVEATAVQANGRITPQDHGLWKDSQIEPLRRVVEFIHSQNQVIGVQLAHAGRKASTVAPWLSSADTATEAVGGWPENVKGPSDIPFHDKFPVPKALTLNEIEQFKQDWVSALKRAVKAGADFVEIHNAHGYLLMSFLSPASNKRTDQYGGSFENRIRLTMEIAQLTRDNIPKDMPVFLRVSATDWLEEAMPNEPSWRIEDTVQLAKALADSGNIDVLDVSSGGNHRAQHIHAKAAFQAPFAIEVKKAVGDRLQVGSVGMIDSAQLASSLLENDGLDFVLVGRGFQKNPGLVWAWAEELDVEISMANQIRWGFSSRGGGVYLKKRHGKM
[12]
  Km: 200 ± 0 µM
  kcat: 64 ± 4 s⁻¹
  kcat/Km: 350000 M⁻¹ s⁻¹
[13]
  Km: 8 ± 1 µM
  kcat: 19.6 ± 1.3 s⁻¹
  kcat/Km: 2.45e+06 M⁻¹ s⁻¹

Reference: article PMC12002099, “Recombinant Production and Characterization of Six Ene‐reductases from Penicillium steckii” (Chembiochem, 2025)
